Fewer inactive variants are shown than the library holds.
B1: TPR 5TU (parent)
chain: GGAUCUUCUCGAUCUAACAAAAAAGACAAAUCUGCCACAAAGCUUGAGAGCAUCUUCGGAUGCAGAGGCGGCAGCCUUCGGUGGCGCGAUAGCGCCAACGUUCUCAACUAUGACACGCAAAACGCGUGCUCCGUUGAAUGGAGUUUAUCAUG

Variants of: B1
Experiment: polymerase ribozyme fitness, log enrichment relative to wild type (log ratio); higher = more active; in vitro selection for triplet polymerase activity
In short: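 A single round of triplicate in vitro selection, including frozen incubation at −7 °C, was applied to PCR-built, transcribed mutant libraries of each subunit of a heterodimeric triplet polymerase ribozyme. Illumina sequencing of input and output libraries retained genotypes with ≥10 input reads and ≥1 read per output. Fitness is the base-2 logarithm of genotype enrichment divided by wild-type enrichment, from inverse-variance-weighted replicate averages.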

| Variant | polymerase ribozyme fitness (log ratio) |
| --- | --- |
| C27U A37C G59U U61A C63U A64C G92U | ≤ -4.2 |
| C27U A91G A147C G152U | ≤ -4.2 |
| A26U C36A G68C G86U G88C | ≤ -4.2 |
| C27U C87A | ≤ -4.2 |
| C27A U44A G48A | ≤ -4.2 |
| A26U C32G G86A C105U | ≤ -4.2 |
| A26U G48C A49U A64C U90G A137G | -4.11 |
| C27U G92U | -1.78 |
| A26U C93U C118U C125A | ≤ -4.2 |
| C27U A47C G128U | ≤ -4.2 |
| C27A G71U | ≤ -4.2 |
| A26U U31A U44G C75G U102G A120C | ≤ -4.2 |
| C27U G70A C87A | ≤ -4.2 |
| C27A A28G A40C A47C A73C U77C C99G | ≤ -4.2 |
| C27U G86A | -2.94 |
| C27U A41G A47C U53A U78C C93A A110U | ≤ -4.2 |
| C27A C54G C105U | ≤ -4.2 |
| A26G U44A C54U C87A C99U U111G G143U | ≤ -4.2 |
| C27G C96U A106G | -4 |
| C27G A66G C87U U109A A113U | ≤ -4.2 |
| C27U A40C G59C G92C A98G C108U C132A U151G | ≤ -4.2 |

| Variant | polymerase ribozyme fitness (log ratio) |
| --- | --- |
| C27U A28G A60G A98U G100A U135G | ≤ -4.2 |
| C27U U31G U55G G94C A113C | ≤ -4.2 |
| C27G A37G C72A C105A | -4.13 |
| C27G C54U C76G U144G | ≤ -4.2 |
| C27A C36U C87G G126C C149U | ≤ -4.2 |
| A26U G83U C95G C105A G141A U146C U151C | ≤ -4.2 |
| C27G A28G C69G C93G C95U | ≤ -4.2 |
| A26G C35U | -3.06 |
| C27U G34A A66G A113C A121C | ≤ -4.2 |
| C27A G117A | -3.86 |
| A26U A41G G62U | -1.6 |
| C27U C79U C87G U90C C96U A121U U134G | ≤ -4.2 |
| C27U C63G C95U C96U C99G | -3.33 |
| C27A C54U A91C G94C | ≤ -4.2 |
| C27G U56A | -3.69 |
| C27U G50C C114G | ≤ -4.2 |
| C27A A39G U53C C95A A121U G136C | ≤ -4.2 |
| C27A U33G A39G A60C C93U U127C G140A | -4.14 |
| C27U A37U C99G | -3.64 |
| C27U A49C A98G C99A C125U U148C | ≤ -4.2 |
| C27G U55A | -3.74 |

| Variant | polymerase ribozyme fitness (log ratio) |
| --- | --- |
| A26G G48A | ≤ -4.2 |
| C27U G92U G100A A106C G124C A138G | ≤ -4.2 |
| A26G C75U C96U | ≤ -4.2 |
| C27U C38U A52U C85G G88U U102G | ≤ -4.2 |
| A26U A28U C32A A52U A73U A91U G92A A113G U148A G152U | ≤ -4.2 |
| C27U G58C C87A A107U | ≤ -4.2 |
| A26U U56A | -2.17 |
| A26U A39U G58A A66C C93U C149G | ≤ -4.2 |
| A26U C96U A142C | -3.03 |
| C27A A30U U44A C57A A97G A98U A119C A120G G128A | ≤ -4.2 |
| C27A U61A G86A | ≤ -4.2 |
| C27U C75A G81A G92A U135A | ≤ -4.2 |
| A26U C85U A115G | -3.36 |
| C27A A66C A73C G92U U148C | ≤ -4.2 |
| C27G A106U | -3.92 |
| A26G G92U | -3.31 |
| C27G U33C G68U | ≤ -4.2 |
| A26U U78A C96A C116U U146C | ≤ -4.2 |
| A26U G59A G83A C87G C93G A97G U104C U139C | ≤ -4.2 |
| A26U C35U U55A C96G G124A | ≤ -4.2 |
| C27U G58C C123U | -1.57 |

| Variant | polymerase ribozyme fitness (log ratio) |
| --- | --- |
| A26U A30U A37C U61A A66C G67C C69U C87A C105A C125U | ≤ -4.2 |
| C27G A28C G48A U55A G68C C87U C108G | ≤ -4.2 |
| A26U U44A G58A C87U A107G C123G G141C | -3.93 |
| A26U A49U G68U C72U G84A G86U G112A A122G | ≤ -4.2 |
| C27G C35G A49C G70C C79A C95G | ≤ -4.2 |
| A26U A98G U127G | ≤ -4.2 |
| C27U C99G G133U G141A C149G | ≤ -4.2 |
| A26U C27U U33A G34A U56A C57U C76A C85G G88A U127C | ≤ -4.2 |
| A26U C35U A47C C54G A64G A66U C93A A142G | ≤ -4.2 |
| A26U U104C G124C | -3.3 |
| A26U C36G U55A G58C C105U | ≤ -4.2 |
| A26U C93U A122U | -2.76 |
| C27G G94C G136U | ≤ -4.2 |
| A26U C35U G42C C108A A115C G133U U135A A142G U146C A147G | ≤ -4.2 |
| A26U U55A G74A G92A A110U G136A | ≤ -4.2 |
| C27G C36U G50U A73U U82A C95U | ≤ -4.2 |
| A26U C75U | -3.23 |
| C27G A37U A40C A64G G81A C95G A138C | -3.88 |
| A26U C35U C87A G124C | ≤ -4.2 |
| C27U A122G | -2.4 |
